Biological target: T1, 19-mer (SEQ ID NO:11) PRCGNPDVANYNFFPRKPK
T1 chain: PRCGNPDVANYNFFPRKPK

B1: Proenzyme pro-MMP-9 (protein)
chain: APRQRQSTLVLFPGDLRTNLTDRQLAEEYLYRYGYTRVAEMRGESKSLGPALLLLQKQLSLPETGELDSATLKAMRTPRCGVPDLGRFQTFEGDLKWHHHNITYWIQNYSEDLPRAVIDDAFARAFALWSAVTPLTFTRVYSRDADIVIQFGVAEHGDGYPFDGKDGLLAHAFPPGPGIQGDAHFDDDELWSLGKGVVVPTRFGNADGAACHFPFIFEGRSYSACTTDGRSDGLPWCSTTANYDTDDRFGFCPSERLYTQDGNADGKPCQFPFIFQGQSYSACTTDGRSDGYRWCATTANYDRDKLFGFCPTRADSTVMGGNSAGELCVFPFTFLGKEYSTCTSEGRGDGRLWCATTSNFDSDKKWGFCPDQGYSLFLVAAHEFGHALGLDHSSVPEALMYPMYRFTEGPPLHKDDVNGIRHLYGPRPEPEPRPPTTTTPQPTAPPTVCPTGPPTVHPSERPTAGPTGPPSAGPTGPPTAGPSTATTVPLSPVDDACNVNIFDAIAEIGNQLYLFKDGKYWRFSEGRGSRPQGPFLIADKWPALPRKLDSVFEERLSKKLFFFSGRQVWVYTGASVLGPRRLDKLGLGADVAQVTGALRSGRGKMLLFSGRRLWRFDVKAQMVDPRSASEVDRMFPGVPLDTHDVFQYREKAYFCQDRFYWRVSSRSELNQVDQVGYVTYDILQCPED
Q: For B1, which “conversion of pro-MMP-9 into prodomain and active enzyme by stromilysin (HPLC peak areas)” value is on record?
A: Titrating the standard splicing reaction with the 19-mer prevents the conversion of pro-MMP-9 into the prodomain and the active enzyme. Splicing can be inhibited in a dose dependent manner with micromolar 19-mer.

From patent US20040127421
